Laboratory results published in patent publication US7244706.

Key:
[1] = molecular target: human lactoferrin (LF), intact, purified from human milk/colostrum (UniProt P02788)
Chain of human lactoferrin (LF), intact, purified from human milk/colostrum (P02788 20-710): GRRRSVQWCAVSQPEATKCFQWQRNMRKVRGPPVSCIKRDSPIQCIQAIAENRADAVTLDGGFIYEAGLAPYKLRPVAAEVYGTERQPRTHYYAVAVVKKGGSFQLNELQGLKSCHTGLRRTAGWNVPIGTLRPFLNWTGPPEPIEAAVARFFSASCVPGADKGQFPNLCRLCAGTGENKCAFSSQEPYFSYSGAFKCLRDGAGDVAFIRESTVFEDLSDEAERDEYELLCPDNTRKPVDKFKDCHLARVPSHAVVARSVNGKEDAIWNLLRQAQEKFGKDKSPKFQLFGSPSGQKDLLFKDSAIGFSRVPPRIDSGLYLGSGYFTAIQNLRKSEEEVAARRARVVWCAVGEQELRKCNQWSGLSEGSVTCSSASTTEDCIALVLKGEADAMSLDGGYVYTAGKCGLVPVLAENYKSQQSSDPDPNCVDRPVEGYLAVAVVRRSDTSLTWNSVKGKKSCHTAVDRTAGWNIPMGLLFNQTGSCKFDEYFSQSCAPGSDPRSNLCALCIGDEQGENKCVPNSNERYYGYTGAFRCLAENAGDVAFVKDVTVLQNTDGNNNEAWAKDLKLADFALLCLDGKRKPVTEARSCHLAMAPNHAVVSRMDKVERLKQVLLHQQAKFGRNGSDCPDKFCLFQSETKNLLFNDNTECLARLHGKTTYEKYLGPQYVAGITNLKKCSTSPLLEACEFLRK

Chain of bovine spleen cathepsin D (Sigma) (chain, as listed by the source): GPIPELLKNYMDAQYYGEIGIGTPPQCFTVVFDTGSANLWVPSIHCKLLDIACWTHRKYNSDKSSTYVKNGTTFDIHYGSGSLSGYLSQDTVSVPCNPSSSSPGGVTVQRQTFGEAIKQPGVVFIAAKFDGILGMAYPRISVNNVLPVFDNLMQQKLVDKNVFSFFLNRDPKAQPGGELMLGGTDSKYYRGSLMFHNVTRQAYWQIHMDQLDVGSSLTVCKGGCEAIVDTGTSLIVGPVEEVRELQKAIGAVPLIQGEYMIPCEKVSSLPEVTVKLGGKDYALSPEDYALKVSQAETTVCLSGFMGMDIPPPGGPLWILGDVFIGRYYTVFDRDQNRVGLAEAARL

Substance: bovine spleen cathepsin D (Sigma)
- loss of proteolytic release of the 6 kDa fragment from LF, seen by immunoblot (pepstatin A): incubations of LF performed in the absence of cathepsin D or in the presence of pepstatin A, an inhibitor of cathepsin D, failed to identify a 6 kDa fragment
- proteolytic release of the N-terminal 6 kDa polypeptide, seen by immunoblot [1]: Exposure of either iron-saturated or iron-free LF to even small amounts of cathepsin D ( 1/200th, w:w) for a period as brief as five minutes yielded the N-terminal 6 kDa polypeptide
